The target of the assay is KDR1-3 domains (UniProt P35968). Briefly: Octet BLI, KDR1-3 domains on biosensor, scFv in solution.
KDR1-3 domains, sequence (P35968 20-327 limits assumed): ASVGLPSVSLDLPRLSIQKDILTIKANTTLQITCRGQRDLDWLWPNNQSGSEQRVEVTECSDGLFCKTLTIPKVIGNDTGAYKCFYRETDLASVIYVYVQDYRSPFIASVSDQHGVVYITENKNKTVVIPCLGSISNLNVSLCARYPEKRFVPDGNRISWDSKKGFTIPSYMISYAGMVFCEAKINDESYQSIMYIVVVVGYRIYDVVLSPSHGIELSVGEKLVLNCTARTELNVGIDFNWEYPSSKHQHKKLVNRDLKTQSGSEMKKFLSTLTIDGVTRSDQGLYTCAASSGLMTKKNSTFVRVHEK

B1: 6A6 (scFv form, off-rate screening) (scFv, from another filing, V domains shown)
VH: QMQLVQSGAEVKKPGASVKLSCKASGYTFSSYWMHWVRQAPGQRLEWMGEINPGNGHTNYNEKFKSRVTITVDKSASTAYMELSSLRSEDTAVYYCAKIWGPSLTSPFDYWGQGTLVTVSS
VL: SNFMLTQPPSVSVSPGKTARITCRGDNLGDVNVHWYQQRPGQAPVLVMYYDADRPSGIPERFSGSNSGNTATLTISGVEAGDEADYYCQVWDRTSEYVFGTGTKVTVLG
By koff is commonly meant the first-order rate constant of dissociation. Higher therefore signals fast dissociation. Turning to B1, the koff amounted to 0.000266 s⁻¹.

Values taken from patent publication US20250179192A1.
